Usually Kd stands for the free concentration of one partner at which half of the binding sites on the other are occupied at equilibrium, for simple one-to-one binding.

Some targets named below: GDF-5 (UniProt P43026); BMP-7 (UniProt P18075); Activin (UniProt P08476).
What all share (test): SPR
A general note: SPR reads the build-up and loss of mass on a sensor chip optically.

A value given as a limit tells only on which side of the number the result lay.

Chain of GDF-5 (P43026 382-501): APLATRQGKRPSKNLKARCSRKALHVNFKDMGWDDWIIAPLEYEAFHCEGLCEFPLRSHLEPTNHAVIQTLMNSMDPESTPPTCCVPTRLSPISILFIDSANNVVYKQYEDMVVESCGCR
Chain of BMP-7 (P18075 293-431): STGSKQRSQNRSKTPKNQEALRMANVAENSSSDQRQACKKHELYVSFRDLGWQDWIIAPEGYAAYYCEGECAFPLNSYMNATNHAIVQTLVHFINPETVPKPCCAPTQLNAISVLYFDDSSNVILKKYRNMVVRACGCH

As for “BΔB: BMPR-II ECD with its A-loop deleted (from UniProt Q13873 26-150) (domain or fragment)”, the Kd in the test with GDF-5 was over 1.3 mM; with BMP-7, 27 µM; with Activin, 94 µM.

For the substance “AΔA: ActR-IIB ECD with its A-loop deleted (domain or fragment)”, the Kd was over 1.3 mM with GDF-5, 30 µM with BMP-7 and over 1300 µM with Activin.

As for “human recombinant ActR-IIB ECD, wild type (from UniProt Q13705 19-134) (domain or fragment)”, the figures for the Kd with GDF-5 and with BMP-7 were over 1.3 mM and 16 µM, respectively.
